We go through four molecules from patent US20220153839A1 (NBE THERAPEUTICS, published 2022).

Substitutions are numbered along the chain they refer to.

B1: ERR1-TOP43 chimeric rabbit/human Fab (Fab, V domains shown)
VH: QSLEESGGRLVTPGTPLTLTCTVSGFSLSSYWMSWVRQAPGKGLEWIGAIYGSGNTYYASWAKGRFTISKTSTTVDLKITSPTTEDTATYFCARDVHSTATDLWGPGTLVTISS
VL: SYELTQLPSVSVSLGQTARITCGGNNIGSKAVNWYQQKPGLAPGLLIYNDDERPSGVPDRFSGSNSGDTATLTISGAQAGDEADYYCQLWDSSAGAYVFGGGTQLTVTG
notes: Chimeric rabbit/human Fab with His tag, expressed in E. coli (pET11a); lambda light chain
B2: ERR1-301 chimeric rabbit/human Fab (Fab, V domains shown)
VH: QEQLEESGGGLVTPGGSLTLTCTASGFTISTYHMSWVRQAPGKGLEWIGSIYAGSGSTYYASWVNGRFTISSNTTQNTVSLQMNSLTVADTATYFCARDHPSYGMDLWGPGTLVTVSS
VL: B1 VL with N26S, N49D, G63A, G80E, G95V
notes: as for B1
B3: ERR1-316 chimeric rabbit/human Fab (Fab, V domains shown)
VH: QEQLEESGGRLVTPGTPLTLTCTASGFFLSSYYVSWVRQAPGKGLEWIGAIGTGGSAYYASWAKSRSTITRNTNLSTVTLKMTSLTAADTATYFCARDHPNYGMDLWGPGTLVTVSS
VL: B1 VL with N26S, N49D, A94T, V98A
notes: as for B1
B4: ERR1-403 chimeric rabbit/human Fab (Fab, V domains shown)
VH: QEQLKESGRGLVQPGGSLKLSCKASGFDFSGWYMTWVRQAPGKGLEWIGTIGTTKGRTYYASWVNGRFTISSNAQNTVDLQMNSLTAADRATYFCVRGSDYFDLWGPGTLVTISS
VL: B1 VL with N26S, N49D, D59A
notes: as for B1

T7 sequence (Q01974 34-403): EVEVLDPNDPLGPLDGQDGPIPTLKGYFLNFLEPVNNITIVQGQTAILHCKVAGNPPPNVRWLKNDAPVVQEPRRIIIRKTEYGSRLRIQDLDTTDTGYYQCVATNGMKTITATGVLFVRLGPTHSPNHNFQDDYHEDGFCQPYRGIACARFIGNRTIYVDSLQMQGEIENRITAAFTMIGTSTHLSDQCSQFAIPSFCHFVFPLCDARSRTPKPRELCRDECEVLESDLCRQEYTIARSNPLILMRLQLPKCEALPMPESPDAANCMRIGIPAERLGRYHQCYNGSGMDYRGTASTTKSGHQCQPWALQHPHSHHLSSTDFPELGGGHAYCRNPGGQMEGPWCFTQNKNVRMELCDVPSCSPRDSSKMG
T6 sequence (chain, as listed by the source limits assumed): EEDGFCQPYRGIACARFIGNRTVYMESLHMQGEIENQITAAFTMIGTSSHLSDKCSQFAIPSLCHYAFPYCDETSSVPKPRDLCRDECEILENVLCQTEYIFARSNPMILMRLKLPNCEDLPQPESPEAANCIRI
T2 sequence (Q01973 30-406): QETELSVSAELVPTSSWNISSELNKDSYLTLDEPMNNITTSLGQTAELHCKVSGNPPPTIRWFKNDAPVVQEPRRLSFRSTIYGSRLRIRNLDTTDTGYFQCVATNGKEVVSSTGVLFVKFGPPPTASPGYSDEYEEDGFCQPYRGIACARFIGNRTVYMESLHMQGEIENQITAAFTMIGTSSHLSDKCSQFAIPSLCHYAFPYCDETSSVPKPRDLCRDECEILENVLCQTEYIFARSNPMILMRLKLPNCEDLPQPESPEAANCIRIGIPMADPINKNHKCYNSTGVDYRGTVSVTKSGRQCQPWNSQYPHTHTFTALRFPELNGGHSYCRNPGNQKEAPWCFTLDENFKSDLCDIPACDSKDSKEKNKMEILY

In one assay the target is T1, hROR2 (human, UniProt Q01974).
T1 construct: full length, on the cell surface; also called 63-12 / hROR2; ROR2 on T47D cells
T1 sequence (Q01974 34-943 limits assumed): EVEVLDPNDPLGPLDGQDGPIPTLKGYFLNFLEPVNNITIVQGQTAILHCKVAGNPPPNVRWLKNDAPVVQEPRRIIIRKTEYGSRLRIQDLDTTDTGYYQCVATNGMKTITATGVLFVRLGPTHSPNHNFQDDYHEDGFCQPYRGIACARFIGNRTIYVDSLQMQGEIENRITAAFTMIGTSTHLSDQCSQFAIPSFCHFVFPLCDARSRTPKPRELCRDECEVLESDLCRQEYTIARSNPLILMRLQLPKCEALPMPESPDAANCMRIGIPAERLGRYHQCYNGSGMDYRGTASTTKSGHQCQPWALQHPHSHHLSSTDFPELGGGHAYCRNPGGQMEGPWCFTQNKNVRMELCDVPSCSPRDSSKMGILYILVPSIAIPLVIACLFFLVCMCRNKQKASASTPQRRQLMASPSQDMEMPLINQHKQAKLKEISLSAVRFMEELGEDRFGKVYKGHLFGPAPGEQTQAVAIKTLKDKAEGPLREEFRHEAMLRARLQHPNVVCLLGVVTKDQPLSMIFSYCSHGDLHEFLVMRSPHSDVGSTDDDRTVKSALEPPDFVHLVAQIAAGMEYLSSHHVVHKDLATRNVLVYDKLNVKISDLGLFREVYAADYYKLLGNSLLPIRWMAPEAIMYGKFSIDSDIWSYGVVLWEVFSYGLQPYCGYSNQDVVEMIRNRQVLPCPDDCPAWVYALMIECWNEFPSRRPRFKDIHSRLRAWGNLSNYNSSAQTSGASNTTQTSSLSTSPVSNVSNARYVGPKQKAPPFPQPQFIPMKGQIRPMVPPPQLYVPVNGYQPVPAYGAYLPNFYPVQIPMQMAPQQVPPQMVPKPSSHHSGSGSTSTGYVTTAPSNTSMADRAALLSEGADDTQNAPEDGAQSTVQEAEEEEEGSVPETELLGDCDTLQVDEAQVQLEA
The assay is described as follows: flow cytometry on 63-12 / hROR2 cells; anti-His Alexa Fluor 488. As to the method: Flow cytometry: Cells were stained using standard flow cytometry methodology. Briefly, for purified anti-ROR1 Fab (FIG. 3), 0.1-1×10⁶ cells were stained with 1000 ng/100 μL of Fab on ice for 1 h. After washing twice with ice-cold flow cytometry buffer (PBS containing 1% (v/v) BSA, 0.1% sodium azide and 1 mM EDTA), the cells were incubated with a 1:1000 dilution of a mouse anti-His tag mAb conjugated to Alexa Fluor 488 (Qiagen) in 100 μL flow cytometry buffer on ice for 30 min. For purified anti-ROR1 IgG1 (FIG. 8), 0.1-1×10⁶ cells were blocked by 4% goat serum for 15 min at room temperature and then incubated with 100 ng/100 μL of IgG on ice for 1 h. After washing twice with ice-cold flow cytometry buffer, cells were stained with a 1:500 dilution of goat anti-human IgG, Fcγ pAbs conjugated to APC (Jackson ImmunoResearch) in 100 μL flow cytometry buffer on ice for 30 min. For commercial goat anti human ROR1 polyclonal antibody (FIG. 8), 0.1-1×10⁶ cells were stained with 200 ng/100 μL of Ab on ice for 1 h. […] Finally, 4′,6-diamidino-2-phenylindole (DAPI) was added to a final concentration of 100 ng/mL to exclude dead cells from the analysis. Cells were analyzed using a FACSCalibur instrument (BD Biosciences) and FlowJo analytical software (Tree Star, Ashland, Oreg.).
Background: A flow cytometer gives signals particle by particle.
B1: the binding result is recorded as “no binding (tested: 1000 ng/100 µL)”.
With B2, the binding result is recorded as “no binding (tested: 1000 ng/100 µL)”.
As to B3, the binding result is “no binding (tested: 1000 ng/100 µL)”.
For B4, the binding result was “no binding (tested: 1000 ng/100 µL)”.

The next assay concerns the target T2, hFc-hROR1 (extracellular domain of human ROR1 fused to the Fc domain of human IgG1) (human, UniProt Q01973 30-406).
T2 construct: extracellular domain; also called hFc-ROR1; not shown: Fc domain of human IgG1
Put plainly: SPR (Biacore X100); hFc-hROR1 captured by anti-human Fcγ antibody on CM5; Fab as analyte; 1:1 Langmuir fit. As to the method:
(A) Shown are Biacore X100 sensorgrams obtained for the binding of each Fab to hFc-hROR1 captured by anti-human Fcγ antibody immobilized on CM5 chip after instantaneous background depletion. Fabs were injected at five different concentrations with the highest concentration indicated in table (B), one of the five concentrations was tested in duplicates. The equilibrium dissociation constant (Kd) was calculated from koff/kₒₙ (kₒₙ, association rate constant; koff, dissociation rate constant).
Surface plasmon resonance: Surface plasmon resonance for the measurement of the affinities of all Fabs to hFc-hROR1 and for epitope mapping studies were performed on a Biacore X100 instrument using Biacore reagents and software (GE Healthcare, Piscataway, N.J.). Anti-Human IgG (Fc) antibody was immobilized on a CM5 sensor chip following the instruction of Human Antibody Capture Kit (GE Healthcare, Piscataway, N.J.). The sensor chip included an empty flow cell for instantaneous background depletion. All binding assays used 1×HBS-EP+ running buffer (10 mM HEPES, 150 mM NaCl, 3 mM EDTA (pH 7.4), and 0.05% (v/v) Surfactant P20) and a flow rate of […]. […] The sensor chip was regenerated with […] from the Human Antibody Capture Kit without any loss of binding capacity. Calculation of association (kₒₙ) and dissociation (koff) rate constants was based on a 1:1 Langmuir binding model. The equilibrium dissociation constant (Kd) was calculated from koff/kₒₙ. For epitope mapping studies, each Fab was prepared at 500 nM alone in 1×HBS-EP+ running buffer and then injected in order as indicated in FIG. 5.
(In general: SPR reads the build-up and loss of mass on a sensor chip optically.)
Consider B1, for which binding was characterised by a dissociation constant (Kd) of 1.11 nM, the koff is 0.000501 s⁻¹ and the on-rate (kon) amounted to 451000 M⁻¹ s⁻¹.
The molecule B2 came in with a Kd of 118 nM, a koff of 0.1 s⁻¹ and a kon of 849000 M⁻¹ s⁻¹.
With B3, binding was characterised by a dissociation constant (Kd) of 121 nM, the koff was determined as 0.133 s⁻¹ and the kon worked out at 1.1e+06 M⁻¹ s⁻¹.
The corresponding values for B4 are 41.6 nM, 0.00128 s⁻¹ and 30800 M⁻¹ s⁻¹.

The target in another assay is T3, Fr + Ki (human, UniProt Q01973).
T3 construct: Frizzled and Kringle domains of the extracellular domain; also called hFc-hROR1-Fr-Ki
T3 sequence (Q01973 165-391 limits assumed): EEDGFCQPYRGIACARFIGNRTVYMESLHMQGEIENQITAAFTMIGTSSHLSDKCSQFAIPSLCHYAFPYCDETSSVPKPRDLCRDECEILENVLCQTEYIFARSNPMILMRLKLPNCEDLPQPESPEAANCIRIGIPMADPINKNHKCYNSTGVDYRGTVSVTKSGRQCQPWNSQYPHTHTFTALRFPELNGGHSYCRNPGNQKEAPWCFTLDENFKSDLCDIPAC
The assay is described as follows: ELISA on directly coated hFc fusion proteins of hROR1 domains; anti-His-HRP; A405. As to the method:
(§1) ELISA: For ELISA (FIG. 2), each well of a 96-well Costar 3690 plate (Corning, Corning, N.Y.) was coated with 100 ng anti-human IgG1 Fc in 25 μL coating buffer (0.1 M Na₂CO₃, 0.1 M NaHCO₃, pH 9.6) for 1 h at 37° C. After blocking with 150 μL 3% (w/v) BSA/TBS for 1 h at 37° C., hFc-hROR1 or hFc-mROR1 was captured following incubation at 100 ng/50 μL for 1 h at 37° C. Then 100 ng/50 μL of Fab was applied in each well at 37° C. 2 h later, 50 μL of a 1:1000 dilution of a mouse anti-His tag mAb conjugated to horse radish peroxidase (HRP) (R&D Systems, Minneapolis, Minn.) in 1% (w/v) BSA/TBS was used to detect the Fab. To determine the epitopes (FIG. 4), hFc fusion proteins containing different domains of hROR1 were coated directly, followed by incubation with Fab before detection by mouse anti-His tag mAb conjugated to HRP. Washing with PBS was repeated and colorimetric detection was performed using 2,2′-azino-bis(3-ethylbenzthiazoline)-6-sulfonic acid (Roche) as substrate according to the manufacturer's directions. The absorbance was measured at 405 nm using a SpectraMax M5 microplate reader (Molecular Devices; Sunnyvale, Calif.) and SoftMax Pro software (Molecular Devices).
(An ELISA detects its analyte on a solid surface through an enzyme-linked reagent.)
Consider B1, for which the binding result is recorded as “no binding”.
With B2, the binding result is listed as “no binding”.
For the molecule B3, the binding result is recorded as “no binding”.
As to B4, the binding result is “no binding”.

In the next assay the target is T4, Kr (human, UniProt Q01973).
T4 construct: Kringle domain of the extracellular domain; also called hFc-hROR1-Kr
T4 sequence (Q01973 312-391 limits assumed): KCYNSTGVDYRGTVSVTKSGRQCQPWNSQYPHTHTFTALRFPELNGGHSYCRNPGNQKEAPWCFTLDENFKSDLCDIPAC
The assay is described as above. The procedure:
as §1
Turning to B1, the binding result is recorded as “no binding”.
With B2, the binding result is reported as “no binding”.
Consider B3, for which the binding result is given as “no binding”.
With B4, the binding result is reported as “no binding”.

In another assay the target is T5, Ig (human, UniProt Q01973).
T5 construct: Ig domain of the extracellular domain; also called hFc-hROR1-Ig
T5 sequence (Q01973 42-147 limits assumed): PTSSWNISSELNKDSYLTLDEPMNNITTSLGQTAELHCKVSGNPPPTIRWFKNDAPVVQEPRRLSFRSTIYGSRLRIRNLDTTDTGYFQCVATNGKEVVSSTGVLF
Described as above. As to the method:
as §1
On to B1, for which the binding result is listed as “no binding”.
With B2, the binding result was “no binding”.
Turning to B3, the binding result was “no binding”.
As for B4, the binding result was “no binding”.

The next assay has as its target T6, Fr.
T6 construct: also called hFc-hROR1-Fr
Described as above. As to the method: as §1
As for B1, the binding result is listed as “no binding”.
B2: the binding result is given as “no binding”.
Turning to B3, the binding result is listed as “no binding”.
B4: the binding result is given as “no binding”.

The next assay addresses T7, hFc-hROR2 (extracellular domain of human ROR2 fused to the Fc domain of human IgG1) (human, UniProt Q01974 34-403).
T7 construct: extracellular domain; not shown: Fc domain of human IgG1
Put plainly: ELISA as for hFc-hROR1; third bar series, keyed 'hFc-hROR1' a second time on the sheet, taken as hFc-hROR2 by legend paragraph 27. The procedure:
(§2) The binding of each chimeric rabbit/human Fab to hROR1 and mROR1 fused with human IgG1 Fc (hFc-hROR1 and hFc-mROR1) was analyzed by ELISA. hFc-ROR1 or hFc-mROR1 were captured by anti-human IgG1 Fc antibody immobilized on plate and then incubated with hROR1 specific Fabs comprising a His-tag via detection with mouse anti-His tag.
as §1
As to B1, the binding result was “no binding (tested: 100 ng/50 µL)”.
Take B2: the binding result was “no binding (tested: 100 ng/50 µL)”.
As for B3, the binding result is “no binding (tested: 100 ng/50 µL)”.
Regarding B4, the binding result is “no binding (tested: 100 ng/50 µL)”.

The target in the next assay is T8, hFc-mROR1 (extracellular domain of mouse ROR1 fused to the Fc domain of human IgG1) (human; mouse, UniProt Q9Z139 30-406).
T8 construct: extracellular domain; not shown: Fc domain of human IgG1
T8 sequence (Q9Z139 30-406): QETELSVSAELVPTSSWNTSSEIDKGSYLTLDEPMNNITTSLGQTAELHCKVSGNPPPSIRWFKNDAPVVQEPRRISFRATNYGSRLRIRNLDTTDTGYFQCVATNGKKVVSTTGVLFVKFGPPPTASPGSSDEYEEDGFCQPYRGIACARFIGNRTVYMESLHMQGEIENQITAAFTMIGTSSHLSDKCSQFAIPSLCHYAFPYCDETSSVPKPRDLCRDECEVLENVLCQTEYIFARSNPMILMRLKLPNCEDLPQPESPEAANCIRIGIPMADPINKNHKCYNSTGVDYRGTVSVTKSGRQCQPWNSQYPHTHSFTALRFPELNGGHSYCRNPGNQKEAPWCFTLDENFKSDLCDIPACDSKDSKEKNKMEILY
Put plainly: ELISA; hFc fusion captured by coated anti-human IgG1 Fc; anti-His-HRP; A405. The procedure:
as §2, §1
B1: the binding result is recorded as “no binding (tested: 100 ng/50 µL)”.
For B2, the binding result was “no binding (tested: 100 ng/50 µL)”.
Regarding B3, the binding result is listed as “no binding (tested: 100 ng/50 µL)”.
As to B4, the binding result is “no binding (tested: 100 ng/50 µL)”.

Broadly, the Kd is the concentration at which binding is half-saturated. Lower therefore signals tighter binding. By koff is commonly meant the first-order rate constant of dissociation. Usually kon stands for a measure of how fast the partners come together.
